Results from paper PMC9513391, “Crystal structure of the α-ketoglutarate-dependent non-heme iron oxygenase CmnC in capreomycin biosynthesis and its engineering to catalyze hydroxylation of the substrate enantiomer” (Frontiers in Chemistry, 2022).

Target: the molecule itself
Experiment: crystal structure; CmnC apo and soaked complexes (L-Arg, L-hArg, alpha-KG, L-Arg/alpha-KG), space group I222, two chains in the asymmetric unit; apo crystals from 200 mM ammonium acetate, 24% v/v PEG 400, 0.1 M sodium citrate pH 5.5, 20°C

B1: CmnC (enzyme)
chain: MTAIREIRLSEPESAQAALLALECAQRYAEPDSADFLADAAVLAHDLPRAVRREVERARLDDRLHALVVRGNDVDQDALGPTPPHWRQARTAASRRYGFLLVLYASLLGDVVGWATQQDGRVVTDVLPIEGQEDSLVSSSSSVELGWHTEDAFSPYRADYVGLFSLRNPDSVATTVAGLDPDLVGPAVVDVLFGERFHIRPDNSHLPTHNSGGRLSDYFAGIVEAVENPRAVSILRGHRDAPQLCVDSDFTTAVDGDAEAAGALDTLIKHLGGALYEVVLGPGDVAFLDNRNVVHGRRPFRARFDGTDRWLKRINVTADLRKSRAARRDAQARVLGEA
notes: CmnC, alpha-ketoglutarate-dependent non-heme iron oxygenase of capreomycin biosynthesis; gene cmnC amplified from genomic DNA of the capreomycin producer (ATCC 23892) and subcloned into pET28a; also called CmnC^apo; wild-type CmnC
stoichiometry N: 2
